Values of other authors in PMC5264612.

Tests used:
MftC = MftC (UniProt P9WJ78)
MftA = MftA (UniProt P9WJ80)
Sequence of UniProt P9WJ80 (P9WJ80 whole entry): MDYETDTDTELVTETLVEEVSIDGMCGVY

Sequence of UniProt P9WJ78 (P9WJ78 whole entry): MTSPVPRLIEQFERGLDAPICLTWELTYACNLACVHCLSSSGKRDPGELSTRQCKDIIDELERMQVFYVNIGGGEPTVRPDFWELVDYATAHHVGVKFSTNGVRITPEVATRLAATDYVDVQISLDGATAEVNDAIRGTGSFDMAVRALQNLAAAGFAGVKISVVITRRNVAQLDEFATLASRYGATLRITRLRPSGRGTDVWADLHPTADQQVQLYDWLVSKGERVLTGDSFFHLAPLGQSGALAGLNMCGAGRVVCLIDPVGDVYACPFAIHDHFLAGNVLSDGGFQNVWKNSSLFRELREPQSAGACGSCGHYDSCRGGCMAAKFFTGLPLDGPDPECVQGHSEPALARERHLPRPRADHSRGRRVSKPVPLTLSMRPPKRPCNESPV

Substance: MftB (from UniProt A0PM48)
- Kd (MftC): 2000 nM
- Kd (MftA): 120 nM
